Experimental data as given in US20190270809A1 (FOURTH MILITARY MEDICAL UNIVERSITY, published 2019).

T1: human BASIGIN recombinant protein (human, UniProt P35613-2 22-205, limits assumed)
T1 construct: also called hBASIGIN
T1 sequence (looked up): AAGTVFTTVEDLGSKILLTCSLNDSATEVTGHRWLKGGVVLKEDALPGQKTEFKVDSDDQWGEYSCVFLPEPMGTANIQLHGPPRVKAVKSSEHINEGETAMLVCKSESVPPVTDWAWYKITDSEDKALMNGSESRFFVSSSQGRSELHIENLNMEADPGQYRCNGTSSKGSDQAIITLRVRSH

B1: humanized antibody HP6H8-3 (antibody, V domains shown)
VH: EVQLVESGGGLVQPGGSLKLSCAASGFTFSNFWMNWVRQAPGKGLEWVAEIRLKSNNYATHYAESVKGRFTISRDDSKNTLYLQMNSLKTEDTAVYYCTSYDYEYWGQGTLVTVSA
VL: DIQMTQSPSSLSASVGDRVTLTCKASENVGTYVSWYQQKPGQAPKLLIYGASNRYTGVPSRFTGSGSGTDFTLTISSLQPDDFATYYCGQSYSYPFTFGSGTKLEIK
notes: Derived from scFv clone 11242; also called WBP229-203; pCI-WBP229-203L/H
B2: humanized antibody HP6H8-1 (antibody, V domains shown)
VH: EVQLVESGGGLVQPGGSLRLSCAASGFTFSNFWMNWVRQAPGKGLEWVSEIRLKSNNYATHYAESVKGRFTISRDDSKNTLYLQMNSLKTEDTAVYYCTSYDYEYWGQGTLVTVSA
VL: DIQMTQSPSTLSASVGDRVTLSCKASENVGTYVSWYQQKPGKAPKLLIYGASNRYTGVPSRFTGSGSGTDFTLTISSLQPEDFATYYCGQSYSYPFTFGSGTKLEIK
notes: Derived from scFv clone 11305; also called WBP229-205; pCI-WBP229-205L/H
B3: humanized antibody HP6H8-2 (antibody, V domains shown)
VH: EVQLVESGGGLVQPGGSLKLSCAASGFTFSNFWMNWVRQAPGKGLEWVAEIRLKSNNYATHYAESVKGRFTISRDDSKNTLYLQMNSLRTEDTAVYYCTSYDYEYWGQGTLVTVSA
VL: DIQMTQSPASLSASVGDRVTISCKASENVGTYVSWYQQKPGQTPKLLIYGASNRYTGVPSRFSGSGSGTDFTLTISSLQPDDFATYYCGQSYSYPFTFGSGTKLEIK
notes: Derived from scFv clone 11245; also called WBP229-204; pCI-WBP229-204L/H
B4: mouse monoclonal antibody HAb18GC2 (6H8) (antibody, V domains shown)
VH: EVKLEESGGGLVQPGGSMKLSCVASGFTFSNFWMNWVRQSPEKGLEWVAEIRLKSNNYATHYAESVKGRFTISRDDSKSSVYLQMNNLRTEDTGIYYCTSYDYEYWGQGTLVTVSA
VL: NIVMTQSPKSMSMSVGERVTLSCKASENVGTYVSWYQQKPEQSPKLLIYGASNRYTGVPDRFTGSGSATDFTLTISSVQAEDLADYHCGQSYSYPFTFGSGTKLEIK
notes: Mouse monoclonal from hybridoma CCTCC-C200636; also called mouse 6H8; Mouse monoclonal 6H8
B5: chimeric antibody c6H8 (antibody, V domains shown)
VH: EVKLEESGGGLVQPGGSMKLSCVASGFTFSNFWMNWVRQSPEKGLEWVAEIRLKSNNYATHYAESVKGRFTISRDDSKSSVYLQMNNLRTEDTGIYYCTSYDYEYWGQGTLVTVSA
VL: NIVMTQSPKSMSMSVGERVTLSCKASENVGTYVSWYQQKPEQSPKLLIYGASNRYTGVPDRFTGSGSATDFTLTISSVQAEDLADYHCGQSYSYPFTFGSGTKLEIK
notes: Mouse 6H8 variable regions fused to a human constant region of IgG1 isotype; also called chimeric 6H8

The binders below were run against T1, human BASIGIN recombinant protein (assay: SPR (ProteOn XPR36), human BASIGIN amine-coupled on chip, antibody as analyte).
Experimental: The affinity of the antibody was measured with ProteOn XPR36 (Bio-Rad). The GLC chip (Bio-Rad, 1765011) was activated with 0.04 M EDC+0.01 M sulfo-NHS (Bio-Rad). The human BASIGIN was diluted to […] with 10 mM NaAc (pH 4.5) and then injected onto the chip at the rate of 30 μl/min to couple the antigen with the activated chip via amino groups. Finally, the chip were inactivated with 1 M ethanolamine-HCl (Bio-Rad), and when the chip was rotated for 90 degrees, it was washed with a buffer (PBS/0.005% Tween 20) until the baseline was stable. Five cell culture supernatants containing scFv antibody and one negative control were injected on six horizontal channels, respectively, at feeding rate of 30 μl/min. The time for binding was set as 60 s and the time for dissociation was set as 900 s. The data were analyzed using the Kinetic-Langmuir model.
The binding affinity of the three humanized antibodies, the mouse antibody 6H8 and the chimeric antibody c6H8 were also determined by SPR (for detailed steps, please refer to the description in example 6), data were shown in Table 2.
For B1, the Kd was 0.102 nM, the koff was 5.44e-05 s⁻¹ and the kon was 531000 M⁻¹ s⁻¹.
For B2, the Kd was 0.0905 nM, the koff was 4.96e-05 s⁻¹ and the kon was 548000 M⁻¹ s⁻¹.
Work on B3 yielded a Kd of 0.0583 nM, a koff of 3.6e-05 s⁻¹ and a kon of 618000 M⁻¹ s⁻¹.
With B4 the Kd was 1.17 nM, the koff was 6.64e-05 s⁻¹ and the kon was 56600 M⁻¹ s⁻¹.
B5 gave a Kd of 0.452 nM, a koff of 5.81e-05 s⁻¹ and a kon of 128000 M⁻¹ s⁻¹.

The binders below were run against T1, human BASIGIN recombinant protein (assay: ELISA, coated human BASIGIN recombinant protein, HRP-labelled goat anti-human light chain constant region secondary antibody, A450).
Experimental: 200 ng of human BASIGIN recombinant protein was coated in an ELISA plate and allowed to stand overnight at 4° C. The coated plate was blocked with 0.1% BSA at room temperature for 1 hour. Three antibodies obtained in example 8 along with the parental mouse monoclonal 6H8 and chimeric antibody c6H8 were each prepared into 5 solutions with gradient concentrations of 10, 100, 1,000, 10,000 and 100,000 ng/ml. 100 μl of each solution was added into individual wells and the plate was allowed to stand at room temperature for 1 hour. 100 μl of 1:4,000 diluted horseradish peroxidase-labeled goat anti-human light chain constant region as secondary antibody (Millipore) was added and allowed to stand at room temperature for 1 hour. The plates were then washed with 200 μl of 1×PBS buffer for 3 times, TMB substrate solution (50 μl/well) was added to each well to react for 10 min, and the stopping solution (2 M HCl, 50 μl/well) was added to terminate the reaction. The absorbance at 450 nm was read in an ELISA plate reader.
In the case of B4, the “EC50 (read off the curve)” value is reported as about 0.5 µg/mL.
